# Residue numbers refer to the chain shown, from its start. In names and notes the source's numbering stands.
# B1: R1124: PD-L1_VH_IL21R/TIGIT_VL_IL21/TIGIT_VH/PD-L1-VL (bispecific antibody)
# chain 1: not shown
# chain 2: not shown
# heavy: QVQLVQSGAEVKKPGSSVKVSCKASGYSFTSYWMNWVRQAPGQGLEWIGMIRPSDSETRLNQMFKDRVTITVDKSTSTAYMELSSLRSEDTAVYYCAGIHDYGHGAYWGQGTLVTVSSASTKGPSVFPLAPSSKSTSGGTAALGCLVKDYFPEPVTVSWNSGALTSGVHTFPAVLQSSGLYSLSSVVTVPSSSLGTQTYICNVNHKPSNTKVDKRVEPKSCDKTHTCPPCPAPELLGGPSVFLFPPKPKDTLMISRTPEVTCVVVDVSHEDPEVKFNWYVDGVEVHNAKTKPREEQYNSTYRVVSVLTVLHQDWLNGKEYKCKVSNKALPAPIEKTISKAKGQPREPQVYTLPPSREEMTKNQVSLWCLVKGFYPSDIAVEWESNGQPENNYDTTPPVLDSDGSFFLYSDLTVDKSRWQQGNVFSCSVMHEALHNHYTQKSLSLSPGK
# light: EIVLTQSPDFQSVTPKEKVTITCSVSSSISSSNLHWYQQKPDQSPKLLIYGTSNLASGVPSRFSGSGSGTDFTLTINSLEAEDAATYYCQQWSSYPLTFGQGTKLEIKRTVAAPSVFIFPPSDEQLKSGTASVVCLLNNFYPREAKVQWKVDNALQSGNSQESVTEQDSKDSTYSLSSTLTLSKADYEKHKVYACEVTHQGLSSPVTKSFNRGEC
# B2: R1086: TIGIT_VH_IL15RA (R35C)/TIGIT_VL_IL15 (E93C)/PD-L1-Fab (bispecific antibody)
# chain 1: QVQLVQSGAEVKKPGSSVKVSCKASGYSFTSYWMNWVRQAPGQGLEWIGMIRPSDSETRLNQMFKDRVTITVDKSTSTAYMELSSLRSEDTAVYYCAGIHDYGHGAYWGQGTLVTVSSGGGGSGGGGSGGGGSGGGGSGITCPPPMSVEHADIWVKSYSLYSRERYICNSGFKCKAGTSSLTECVLNKATNVAHWTTPSLKCIRDPALVHQRPAPPSTVTTAGVTPQPESLSPSGKEPAASSPSSNNTAATTAAIVPGSQLMPSKSPSTGTTEISSHESSHGTPSQTTAKNWELTASASHQPPGVYPQGHSDTTEPKSSDKTHTCPPCPAPELLGGPSVFLFPPKPKDTLMISRTPEVTCVVVDVSHEDPEVKFNWYVDGVEVHNAKTKPREEQYNSTYRVVSVLTVLHQDWLNGKEYKCKVSNKALPAPIEKTISKAKGQPREPQVYTLPPSREEMTKNQVSLTCRVKGFYPSDIAVEWESNGQPENNYKTTPPVLKSDGSFFLASKLTVDKSRWQQGNVFSCSVMHEALHNHYTQKSLSLSPGK
# chain 2: DIQMTQSPSSLSASVGDRVTITCRASENIYSNLAWYQQKPGKSPKLLVYAASHLPDGVPSRFSGSGSGTDYSLTISSLQPEDFATYYCQHFWGTPRTFGQGTKLEIKGGGGSGGGGSGGGGSGGGGSGNWVNVISDLKKIEDLIQSMHIDATLYTESDVHPSCKVTAMKCFLLELQVISLESGDASIHNTVQDLIILANNSLSSNGNVTESGCKECEELECKNIKEFLQSFVHIVQMFINTS
# heavy: QVQLQESGPGLVKPSETLSLTCAVYGDSITSGYWNWIRKPPGKGLEYIGYISYTGSTYQNPSLKSRITMSRDTSKNQYYLKLSSVTAADTAVYYCARSRAWIRTYFDYWGQGTLVTVSSASTKGPSVFPLAPSSKSTSGGTAALGCLVKDYFPEPVTVSWNSGALTSGVHTFPAVLQSSGLYSLSSVVTVPSSSLGTQTYICNVNHKPSNTKVDKRVEPKSCDKTHTCPPCPAPELLGGPSVFLFPPKPKDTLMISRTPEVTCVVVDVSHEDPEVKFNWYVDGVEVHNAKTKPREEQYNSTYRVVSVLTVLHQDWLNGKEYKCKVSNKALPAPIEKTISKAKGQPREPQVYTLPPSREEMTKNQVSLWCLVKGFYPSDIAVEWESNGQPENNYDTTPPVLDSDGSFFLYSDLTVDKSRWQQGNVFSCSVMHEALHNHYTQKSLSLSPGK
# light: DIQMTQSPSSLSASVGDRVTITCSVSSSISSSNLHWYQQKPGKAPKPWIYGTSNLASGVPSRFSGSGSGTDYTLTISSLQPEDFATYYCQQWSSYPLTFGQGTKLEIKRTVAAPSVFIFPPSDEQLKSGTASVVCLLNNFYPREAKVQWKVDNALQSGNSQESVTEQDSKDSTYSLSSTLTLSKADYEKHKVYACEVTHQGLSSPVTKSFNRGEC
# B3: R1081: TIGIT_VH (G44C)_IL15RA/TIGIT_VL(Q100C)_IL15/PD-L1-Fab (bispecific antibody)
# chain 1: B2 chain 1 with G44C, C174R
# chain 2: B2 chain 2 with Q100C, C221E
# heavy: B2 heavy
# light: B2 light
# B4: R1083: TIGIT_VH (L45C)_IL15RA/TIGIT_VL(F98C)_IL15/PD-L1-Fab (bispecific antibody)
# chain 1: B2 chain 1 with L45C, C174R
# chain 2: B2 chain 2 with F98C, C221E
# heavy: B2 heavy
# light: B2 light
# B5: R1085: TIGIT_VH_IL15RA (P67C)/TIGIT_VL_IL15 (E90C)/PD-L1-Fab (bispecific antibody)
# chain 1: B2 chain 1 with C174R, P206C
# chain 2: B2 chain 2 with E218C, C221E
# heavy: B2 heavy
# light: B2 light
# B6: R1082: TIGIT_VH (W108C)_IL15RA/TIGIT_VL(S43C)_IL15/PD-L1-Fab (bispecific antibody)
# chain 1: B2 chain 1 with W108C, C174R
# chain 2: B2 chain 2 with S43C, C221E
# heavy: B2 heavy
# light: B2 light
# B7: R1084: PD-L1_VH (G44C)_IL15RA/PD-L1_VL(Q101C)_IL15/TIGIT-Fab (bispecific antibody)
# chain 1: QVQLQESGPGLVKPSETLSLTCAVYGDSITSGYWNWIRKPPGKCLEYIGYISYTGSTYQNPSLKSRITMSRDTSKNQYYLKLSSVTAADTAVYYCARSRAWIRTYFDYWGQGTLVTVSSGGGGSGGGGSGGGGSGGGGSGITCPPPMSVEHADIWVKSYSLYSRERYICNSGFKRKAGTSSLTECVLNKATNVAHWTTPSLKCIRDPALVHQRPAPPSTVTTAGVTPQPESLSPSGKEPAASSPSSNNTAATTAAIVPGSQLMPSKSPSTGTTEISSHESSHGTPSQTTAKNWELTASASHQPPGVYPQGHSDTTEPKSSDKTHTCPPCPAPELLGGPSVFLFPPKPKDTLMISRTPEVTCVVVDVSHEDPEVKFNWYVDGVEVHNAKTKPREEQYNSTYRVVSVLTVLHQDWLNGKEYKCKVSNKALPAPIEKTISKAKGQPREPQVYTLPPSREEMTKNQVSLTCRVKGFYPSDIAVEWESNGQPENNYKTTPPVLKSDGSFFLASKLTVDKSRWQQGNVFSCSVMHEALHNHYTQKSLSLSPGK
# chain 2: DIQMTQSPSSLSASVGDRVTITCSVSSSISSSNLHWYQQKPGKAPKPWIYGTSNLASGVPSRFSGSGSGTDYTLTISSLQPEDFATYYCQQWSSYPLTFGCGTKLEIKGGGGSGGGGSGGGGSGGGGSGNWVNVISDLKKIEDLIQSMHIDATLYTESDVHPSCKVTAMKCFLLELQVISLESGDASIHNTVQDLIILANNSLSSNGNVTESGCKECEELEEKNIKEFLQSFVHIVQMFINTS
# heavy: B1 heavy
# light: DIQMTQSPSSLSASVGDRVTITCRASENIYSNLAWYQQKPGKSPKLLVYAASHLPDGVPSRFSGSGSGTDYSLTISSLQPEDFATYYCQHFWGTPRTFGQGTKLEIKRTVAAPSVFIFPPSDEQLKSGTASVVCLLNNFYPREAKVQWKVDNALQSGNSQESVTEQDSKDSTYSLSSTLTLSKADYEKHKVYACEVTHQGLSSPVTKSFNRGEC
# Molecular target: T1, PD-L1 (on CHO-PD-L1 cells) (UniProt Q9NZQ7 19-290)
# Assay: FACS binding; Fig. 22
# T1 sequence (Q9NZQ7 19-290): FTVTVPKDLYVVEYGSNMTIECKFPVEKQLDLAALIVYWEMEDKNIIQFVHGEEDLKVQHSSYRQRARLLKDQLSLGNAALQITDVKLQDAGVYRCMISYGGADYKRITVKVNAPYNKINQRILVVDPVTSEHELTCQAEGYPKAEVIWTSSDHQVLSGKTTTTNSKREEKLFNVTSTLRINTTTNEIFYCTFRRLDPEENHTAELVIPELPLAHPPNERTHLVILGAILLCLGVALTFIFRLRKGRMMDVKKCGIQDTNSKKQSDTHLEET
row,EC50 [nM],Binder
1,13.7,B1

# Molecular target: T1, PD-L1 (on CHO-PD-L1 cells)
# Assay: FACS binding; Fig. 24
row,EC50 [nM],Binder
1,2.02,B2
2,2.37,B3
3,2.29,B4
4,3.2,B5
5,2.78,B6
6,5.85,B7

# Source: patent US20250277023A1 (published 2025)
